The values below come from patent publication US20180245075, “INTEGRATED SYSTEM FOR PROGRAMMABLE DNA METHYLATION” (Trustees of Boston University, published 2018).

The target of data set [1] is ZF10-1-Dam(N132A) writer (synI) (synthetic; Escherichia coli Dam, UniProt P0AEE8 SEQ:21-472). The data set is described as follows: cell_activity; integrated Clustered Reporter, GATC 140 bp downstream, vs mCherry-Dam; ~6-fold on transient reporter (p253). The conditions noted are these: tags: NLS, ZF10-1 six-finger array fused to Dam. The method, then:
Fraction methylation was measured using m6A-qPCR at a single GATC site proximal to the ZF BS array in the singly integrated Clustered Reporter (6th site, 140 bp downstream from end of ZF array). (n=3; error bars, SD). […] (n=3; error bars, SD). […] Diagonal line represents no enrichment in ZF sequence-specific methylation over “background” methylation. Dam N132A and WT are marked in red and black, respectively. (n=3; error bars, SD). […] Cells were transfected with the indicated constructs: Interspersed Reporter only, ZF-VP64 constitutively expressed from pUBC, synI^NT (Dam WT) constitutively expressed from a strong promoter (pCLPIT with no Dox induction), synI^NT (Dam WT) constitutively expressed from a weak promoter (pMinCMV), and synI^NT (Dam N132A) constitutively expressed from a weak promoter (pMinCMV). Genomic DNA (gDNA) was isolated 2 days following transfection, digested with or without DpnII, run out on an agarose gel (top), and the bands used to quantify total fraction methylated DNA (bottom). Undigested bands appearing at the top of each lane in DpnII-treated samples represent methylated (protected) gDNA, while […] gDNA fragments that are digested by DpnII appear as a smear (from ˜0.3-2 kb). Total fraction methylated gDNA is calculated as undigested gDNA in DpnII-treated samples normalized by total gDNA. […]

The target in data set [2] is ZF10-1-Dam(WT) writer (synthetic; Escherichia coli Dam, UniProt P0AEE8 SEQ:21-472). The data set is described as follows: cell_activity; with DpnI-VP64, episomal interspersed reporter. The following applies: tags: NLS, ZF10-1 six-finger array fused to Dam. The method, then: Reporter plasmid was co-transfected with Writer and Reader-Effector constructs, and single-cell GFP levels were measured with flow cytometry two days post-transfection. […] Specific constructs corresponding to the data below were: Reporter: [8XZF_14XGATC_interspersed] minimal CMV promoter; Writer: minCMV-ZF10-1-Dam (WT); and Reader-Effector: UBC-NLS-DpnI DBD-VP64.
Flow cytometry measurements were performed using an Attune NxT Flow Cytometer (Thermo Fisher Scientific) equipped with a high-throughput auto-sampler. Typically, 50,000 or 70,000 events were acquired for transient transfection or stable cell line experiments, respectively. Cells were gated by forward (FSC) and side scatter (SSC) distributions, and either iRFP or mCherry expression for transfection- or integration-positive populations, respectively. For experiments with transient transfection of synI/synR modules (FIGS. 9A-9C), geometric means of the GFP fluorescence distributions were calculated using FLOWJO (Treestar Software). GFP fold change was then calculated by normalizing mean GFP intensity to reporter-only controls, unless otherwise noted. For spreading and memory experiments (with integrated constructs), the percentage of GFP activated cells was quantified using a GFP+gate that contains ˜0.5-1% of negative control cells (FIG. 17E). […]

B1: ZF10-1 binding sequence (BS), arrayed in reporter (dsDNA)
DNA 1: CGGCGTAGCCGATGTCGCGC
DNA 2: GCGCGACATCGGCTACGCCG
As for B1, the activity is approximately 10 fold m6A enrichment in data set [1] and more than 100 fold GFP activation in data set [2].
